In the assay the target is FOXO4 forkhead domain (FHD; 95–195 a.a.) (human, UniProt P98177 95-195). The experiment in a line: NMR paramagnetic relaxation enhancement.

Ends that are not written are not given here. * marks the point of attachment. MTSL = spin label from S-(1-oxyl-2,2,5,5-tetramethyl-2,5-dihydro-1H-pyrrol-3-yl)methyl methanesulfonothioate, attached to the cysteine side chain, CC1(C)C=C(CS*)C(C)(C)N1[O]

Chain of FOXO4 forkhead domain (FHD; 95–195 a.a.) (P98177 95-195): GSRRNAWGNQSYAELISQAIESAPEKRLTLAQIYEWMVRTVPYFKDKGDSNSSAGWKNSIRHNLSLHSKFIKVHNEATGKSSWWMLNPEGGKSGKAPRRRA

In the case of DLDLDMYMENLEC(MTSL)DMDNIISDLMDEGEGLDFNFEPDP (domain or fragment, human, UniProt P98177 469-505, looked up) [FOXO4 conserved region 3 (CR3; 469–505 a.a.), MTSL-labelled at C481], the binding result is listed as “binds”.

The values above are taken from article PMC11530643 (Communications Biology, 2024).
